One assay concerns Jurkat cell line. The format is cell-based. Conditions: for EC50: 24 h. As to the method:
Jurkat cell line (Clone E6-1, ATCC catalog #TIB-152) is grown in specific serum-supplemented media (RPMI-1640, Invitrogen catalog #22400) as recommended by ATCC. A day prior to the initiation of the study, cells are split at optimal cell density (2×10^5-5×10^5 cells/ml) to assure actively dividing cells. The next day, cells are washed twice in serum-free Opti-MEM media (Invitrogen, Catalog #51985) and cells are then plated at optimal cell density (10,000 cells/well) in 50 μl Opti-MEM media or Opti-MEM supplemented with 2% or 10% human serum (Bioreclamation, catalog #HMSRM) in 96-well white tissue culture plate (Nunc, catalog #136102).
For serum free experiment, crosslinked polypeptides are diluted from 2 mM stocks (100% DMSO) in sterile water to prepare 400 μM working solutions. The crosslinked polypeptides and controls are diluted 10-fold first and then serially two-fold diluted in Opti-MEM in dosing plates to provide concentrations of between 1.2 and 40 μM. 50 μl of each dilution is then added to the appropriate wells of the test plate to achieve final concentrations of the polypeptides equal to between 0.6 to 20 μM. For studies using Opti-MEM supplemented with human serum (Bioreclamation, catalog #HMSRM), crosslinked polypeptides are diluted from 10 mM stocks (100% DMSO) in sterile water to prepare 2 mM working solutions. The crosslinked polypeptides and controls are diluted 10-fold first and then serially two-fold diluted in Opti-MEM in the presence of 2% or 10% of human serum to provide concentrations of the polypeptides equal to between 6.25 to 200 μM in dosing plates. 50 μl of each dilution is then added to the appropriate wells of the test plate to achieve final concentrations of the polypeptides equal to between 3.125 to 100 μM. Controls included wells without polypeptides containing the same concentration of DMSO as the wells containing the macrocycles, wells containing 0.1% Triton X-100 and wells containing no cells. Plates are incubated for 24 hours at 37° C. in humidified 5% CO2 atmosphere.
At the end of the incubation period, CellTiter-Glo assay is performed according to manufacturer's instructions (Promega, catalog #G7573) and luminescence is measured using Synergy HT Plate reader (BioTek). Luminescence correlates with viability. A reduction in viability reflects the ability of the test compounds to induce programmed cell death via BAX and BAK.

A further assay concerns the target human serum proteins. The assay is described as follows: Apparent affinity to human serum proteins (Kd*) by EC50 shift analysis. The format is in vitro ADME. Conditions: nonlinear regression of EC50 shift with serum, n = 1, P = 700 μM for 100% serum. The source says:
The measurement of apparent Kd values for serum protein by EC50 shift analysis provides a simple and rapid means of quantifying the propensity of experimental compounds to bind HSA and other serum proteins. A linear relationship exists between the apparent EC50 in the presence of serum protein (EC′50) and the amount of serum protein added to an in vitro assay. This relationship is defined by the binding affinity of the compound for serum proteins, expressed as Kd*. This term is an experimentally determined, apparent dissociation constant that may result from the cumulative effects of multiple, experimentally indistinguishable, binding events. The form of this relationship is presented here in Eq. 0.3, and its derivation can be found in Copeland et al, Biorg. Med. Chem. Lett. 2004, 14:2309-2312. [formula] A significant proportion of serum protein binding can be ascribed to drug interactions with HSA, due to the very high concentration of this protein in serum (35-50 g/L or 530-758 μM). To calculate the Kd value for these compounds we have assumed that the shift in EC50 upon protein addition can be ascribed fully to the HSA present in the added serum, where P is 700 μM for 100% serum, P is 70 μM for 10% serum, etc. We further made the simplifying assumption that all of the compounds bind HSA with a 1:1 stoichiometry, so that the term n in Eq. (0.3) is fixed at unity. With these parameters in place we calculated the Kd* value for each stapled peptide from the changes in EC50 values with increasing serum (and serum protein) concentrations by nonlinear regression analysis of Eq. 0.3 using Mathematica 4.1 (Wolfram Research, Inc., www.wolfram.com). EC′50 values in whole blood are estimated by setting P in Eq. 0.3 to 700 μM [HSA].

Assay [1] deals with T1, human serum proteins (binding ascribed fully to human serum albumin, HSA) (human, UniProt P02768 25-609). Description: cell-based or functional assay.
T1 sequence (P02768 25-609 limits assumed): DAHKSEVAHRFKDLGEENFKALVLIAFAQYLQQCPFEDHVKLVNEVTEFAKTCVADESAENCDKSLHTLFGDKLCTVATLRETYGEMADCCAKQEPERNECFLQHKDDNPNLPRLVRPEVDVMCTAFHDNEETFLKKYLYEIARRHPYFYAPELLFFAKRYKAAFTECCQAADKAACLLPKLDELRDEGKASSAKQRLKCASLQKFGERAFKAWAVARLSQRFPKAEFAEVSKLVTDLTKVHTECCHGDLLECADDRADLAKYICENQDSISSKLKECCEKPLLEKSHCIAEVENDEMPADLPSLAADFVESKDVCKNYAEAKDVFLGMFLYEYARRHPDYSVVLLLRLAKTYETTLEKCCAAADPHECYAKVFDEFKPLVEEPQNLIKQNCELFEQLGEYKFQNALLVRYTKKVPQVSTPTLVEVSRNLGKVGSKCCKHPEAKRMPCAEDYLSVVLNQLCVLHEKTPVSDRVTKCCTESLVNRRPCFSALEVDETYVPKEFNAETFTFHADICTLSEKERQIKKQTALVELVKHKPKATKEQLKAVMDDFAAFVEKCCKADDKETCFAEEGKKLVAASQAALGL
Assay [2] has as its target T1, human serum proteins (binding ascribed …). Description: apparent Kd* by EC50 shift analysis: Jurkat viability EC50 at 0, 2 and 10% human serum, fit assuming 1:1 binding to HSA.

Numbered stars: 1 amine (or outer) side, 2 acyl side, 3 side chain; on linkers, the order of the positions; unused ones are H or OH. Bridge positions count the residues as written; N and C are the ends. Square brackets hold non-standard residues; d marks the D form. Peptide text beside a SMILES is read from it. * marks the point of attachment. ξ: configuration not given here. ξαMeNle(6-ylidene) = CC(CCCC=[*:3])(N[*:1])C(=O)[*:2]; S5 = C=CCCC[C@](C)(N)C(=O)O; Nle = CCCC[C@H](N)C(=O)O; Aib = CC(C)(N)C(=O)O; Propionyl = CCC(=O)*

Turning to `CC[C@H](C)[C@H](NC(=O)[C@H](CCCNC(=N)N)NC(=O)[C@H](CCCNC(=N)N)NC(=O)[C@H](CCCNC(=N)N)NC(=O)[C@H](CC(C)C)NC(=O)[C@H](CCCNC(=N)N)NC(=O)[C@H](CCC(=O)O)NC(C)=O)C(=O)NC1(C)CCCC=CCCCC(C)(C(=O)N[C@@H](Cc2c[nH]cn2)C(=O)N[C@@H](Cc2c[nH]cn2)C(=O)N[C@@H](CO)C(=O)N[C@H](C(N)=O)[C@@H](C)O)NC(=O)[C@H](CCCNC(=N)N)NC(=O)[C@H](CS)NC(=O)[C@H](CC(C)C)NC1=O` (some centres unmarked) [Compound 17, Ac-ERLRRRI$LCR$HHST-NH2] (Ac-ERLRRRI[ξαMeNle(6-ylidene)]LCR[ξαMeNle(6-ylidene)]HHST-NH2; staple 8-12), the EC50 with Jurkat cell line is 12 µM. Further, the “efficacy in serum-free media and in the presence of serum” value in the assay with Jurkat cell line (statement in words) is “high efficacy in serum-free media, which is substantially reduced in the presence of serum”. Further, the Kd on human serum proteins was less than 0.1 µM.
Consider `CC[C@H](C)[C@H](NC(=O)[C@H](CCCNC(=N)N)NC(=O)[C@H](CCCNC(=N)N)NC(=O)[C@H](CCCNC(=N)N)NC(=O)[C@H](CC(C)C)NC(=O)[C@H](CCCNC(=N)N)NC(=O)[C@H](CCC(=O)O)NC(C)=O)C(=O)NC1(C)CCCC=CCCCC(C)(C(=O)N[C@@H](Cc2c[nH]cn2)C(=O)N[C@@H](Cc2c[nH]cn2)C(=O)N[C@@H](CO)C(=O)N[C@H](C(N)=O)[C@@H](C)O)NC(=O)[C@H](CCCNC(=N)N)NC(=O)[C@H](C)NC(=O)[C@H](CC(C)C)NC1=O` (some centres unmarked) [Compound 18, Ac-ERLRRRI$LAR$HHST-NH2] (Ac-ERLRRRI[ξαMeNle(6-ylidene)]LAR[ξαMeNle(6-ylidene)]HHST-NH2; staple 8-12), for which the EC50 in the assay with Jurkat cell line is more than 20 µM. For the same molecule, the Kd at human serum proteins was less than 0.1 µM.
As to Ac-DAARNIARHLA[S5]V[Aib]D[S5][Nle]ARSI-NH2 (staple 12-16) [Compound 2 (crosslinked polypeptide derived from human BID BH3)], in assay [1], the “2% serum EC50 (Jurkat cell viability, CellTiter-Glo)” value (shortened to “2% serum EC50”) is 20.5 µM and the “10% serum EC50 (Jurkat cell viability, CellTiter-Glo)” value (“10% serum EC50” for short) amounted to 97.1 µM. Also, the Kd in assay [2] is less than 0.1 µM.
In the same order, the values of Ac-DIARNIARHLA[S5]V[Aib]D[S5][Nle]ARSI-NH2 (staple 12-16) [Compound 3 (crosslinked polypeptide derived from human BID BH3)] are 14.9 µM, 88.9 µM and less than 0.1 µM.
Taken in the same sequence, the figures for Ac-DAIRNIARHLA[S5]V[Aib]D[S5][Nle]ARSI-NH2 (staple 12-16) [Compound 4 (crosslinked polypeptide derived from human BID BH3)] were 11.3 µM, 73.1 µM and less than 0.1 µM.
For the molecule Propionyl-RNIARHL[Aib][S5]V[Aib]D[S5][Nle]DRSI-NH2 (staple 9-13) [Compound 6 (crosslinked polypeptide derived from human BID BH3)], in assay [1], the “2% serum EC50” value was 10.1 µM and the “10% serum EC50” value turned out to be 49.7 µM. Further, in assay [2], the Kd was 0.4 µM.
Taken in the same sequence, the figures for Ac-DIIRNIARHLA[S5]VGD[S5][Nle]DRSI-NH2 (staple 12-16) [Compound 1 (crosslinked polypeptide derived from human BID BH3)] were 73.9 µM, more than 100 µM and less than 0.1 µM.
In the same order, the values of Propionyl-RNI[Aib]RHL[Aib][S5]V[Aib]D[S5]AARSI-NH2 (staple 9-13) [Compound 9 (crosslinked polypeptide derived from human BID BH3)] are 5.6 µM, 20.2 µM and 2.9 µM.

B1: Compound 12 (crosslinked polypeptide derived from human BIM BH3) (peptide)
peptide: IWIAQALRXIGDXFNAYYARR
modifications: N-terminal acetyl (Ac); C-terminal amide (NH2); $ at 9 and 13 (alpha-methyl amino acids joined by an all-carbon eight-carbon crosslinker with a double bond)
For the molecule B1, in assay [1], the “2% serum EC50” value was found to be 8.6 µM and the “10% serum EC50” value amounted to 26.5 µM. Also, the Kd in assay [2] is 2.3 µM.
Taken in the same sequence, the figures for Ac-IWIAQQLR[S5]IGD[S5]FNAYYARR-NH2 (staple 9-13) [Compound 11 (crosslinked polypeptide derived from human BIM BH3)] were 7.9 µM, 37.6 µM and 1.1 µM.
Taken in the same sequence, the figures for Ac-RWIAQALR[S5]IGD[S5]FNAFYARR-NH2 (staple 9-13) [Compound 14 (crosslinked polypeptide derived from human BIM BH3)] were 2.8 µM, 10.8 µM and 2.3 µM.
Taken in the same sequence, the figures for Ac-RWIAQQLR[S5]IGD[S5]FNAYYARR-NH2 (staple 9-13) [Compound 13 (crosslinked polypeptide derived from human BIM BH3)] were 5.4 µM, 21.5 µM and 3.8 µM.
With Ac-IWIAQALR[S5]IGN[S5]FNAYYARR-NH2 (staple 9-13) [Compound 16 (crosslinked polypeptide derived from human BIM BH3)], in assay [1], the “2% serum EC50” value is 2.3 µM and the “10% serum EC50” value is 9.3 µM. Besides, the Kd in assay [2] was 3.5 µM.
In the case of Ac-RWIAQALR[S5]IGN[S5]FNAYYARR-NH2 (staple 9-13) [Compound 15 (crosslinked polypeptide derived from human BIM BH3)], in assay [1], the “2% serum EC50” value is 2.6 µM and the “10% serum EC50” value stood at 11.5 µM. Further, the Kd in assay [2] was 5.1 µM.
Taken in the same sequence, the figures for Propionyl-RNIARHLA[S5]VGD[S5][Nle][Aib]RSI-NH2 (staple 9-13) [Compound 8 (crosslinked polypeptide derived from human BID BH3)] were 10.5 µM, 37.7 µM and 2.3 µM.
In the same order, the values of Propionyl-RNIARHLA[S5]V[Aib]D[S5]FARSI-NH2 (staple 9-13) [Compound 7 (crosslinked polypeptide derived from human BID BH3)] are 12.4 µM, 48.2 µM and 1.1 µM.
In the same order, the values of Ac-ERLRRRI[S5]LCR[S5]HHST-NH2 (staple 8-12, also called hMAML) [Compound 17 (crosslinked polypeptide derived from human MAML peptide sequence)] are 55.1 µM, more than 100 µM and less than 0.1 µM.
As for Ac-ERLRRRI[S5]LAR[S5]HHST-NH2 (staple 8-12, also called hMAML) [Compound 18 (crosslinked polypeptide derived from human MAML peptide sequence)], in assay [1], the “2% serum EC50” value is more than 100 µM and the “10% serum EC50” value was more than 100 µM. For the same molecule, the Kd in assay [2] is less than 0.1 µM.
With Propionyl-RNIARHLA[S5]V[Aib]D[S5][Nle]DRSI-NH2 (staple 9-13) [Compound 5 (crosslinked polypeptide derived from human BID BH3)], in assay [1], the “2% serum EC50” value came to 16.7 µM and the “10% serum EC50” value was found to be 63 µM. Also, the Kd in assay [2] is 0.2 µM.

The term EC50 denotes the concentration at which the effect is half-maximal.

Values taken from patent US9175045B2, “Peptidomimetic macrocycles” (Aileron Therapeutics, Inc., priority 2008, dated 2015).
